Measurements as given in publication PMC8668987 (The Journal of Biological Chemistry, 2021).

Columns and labels:
[1] = target: endogenous SRC-3 of mouse E14 ES cells (mouse (endogenous in E14 ES cells), UniProt O09000 1-1398); test: co-IP
[2] = target: endogenous SRC-2 of mouse E14 ES cells (mouse (endogenous in E14 ES cells), UniProt Q61026 1-1462); test: co-IP
Chain of endogenous SRC-2 of mouse E14 ES cells (Q61026 whole entry): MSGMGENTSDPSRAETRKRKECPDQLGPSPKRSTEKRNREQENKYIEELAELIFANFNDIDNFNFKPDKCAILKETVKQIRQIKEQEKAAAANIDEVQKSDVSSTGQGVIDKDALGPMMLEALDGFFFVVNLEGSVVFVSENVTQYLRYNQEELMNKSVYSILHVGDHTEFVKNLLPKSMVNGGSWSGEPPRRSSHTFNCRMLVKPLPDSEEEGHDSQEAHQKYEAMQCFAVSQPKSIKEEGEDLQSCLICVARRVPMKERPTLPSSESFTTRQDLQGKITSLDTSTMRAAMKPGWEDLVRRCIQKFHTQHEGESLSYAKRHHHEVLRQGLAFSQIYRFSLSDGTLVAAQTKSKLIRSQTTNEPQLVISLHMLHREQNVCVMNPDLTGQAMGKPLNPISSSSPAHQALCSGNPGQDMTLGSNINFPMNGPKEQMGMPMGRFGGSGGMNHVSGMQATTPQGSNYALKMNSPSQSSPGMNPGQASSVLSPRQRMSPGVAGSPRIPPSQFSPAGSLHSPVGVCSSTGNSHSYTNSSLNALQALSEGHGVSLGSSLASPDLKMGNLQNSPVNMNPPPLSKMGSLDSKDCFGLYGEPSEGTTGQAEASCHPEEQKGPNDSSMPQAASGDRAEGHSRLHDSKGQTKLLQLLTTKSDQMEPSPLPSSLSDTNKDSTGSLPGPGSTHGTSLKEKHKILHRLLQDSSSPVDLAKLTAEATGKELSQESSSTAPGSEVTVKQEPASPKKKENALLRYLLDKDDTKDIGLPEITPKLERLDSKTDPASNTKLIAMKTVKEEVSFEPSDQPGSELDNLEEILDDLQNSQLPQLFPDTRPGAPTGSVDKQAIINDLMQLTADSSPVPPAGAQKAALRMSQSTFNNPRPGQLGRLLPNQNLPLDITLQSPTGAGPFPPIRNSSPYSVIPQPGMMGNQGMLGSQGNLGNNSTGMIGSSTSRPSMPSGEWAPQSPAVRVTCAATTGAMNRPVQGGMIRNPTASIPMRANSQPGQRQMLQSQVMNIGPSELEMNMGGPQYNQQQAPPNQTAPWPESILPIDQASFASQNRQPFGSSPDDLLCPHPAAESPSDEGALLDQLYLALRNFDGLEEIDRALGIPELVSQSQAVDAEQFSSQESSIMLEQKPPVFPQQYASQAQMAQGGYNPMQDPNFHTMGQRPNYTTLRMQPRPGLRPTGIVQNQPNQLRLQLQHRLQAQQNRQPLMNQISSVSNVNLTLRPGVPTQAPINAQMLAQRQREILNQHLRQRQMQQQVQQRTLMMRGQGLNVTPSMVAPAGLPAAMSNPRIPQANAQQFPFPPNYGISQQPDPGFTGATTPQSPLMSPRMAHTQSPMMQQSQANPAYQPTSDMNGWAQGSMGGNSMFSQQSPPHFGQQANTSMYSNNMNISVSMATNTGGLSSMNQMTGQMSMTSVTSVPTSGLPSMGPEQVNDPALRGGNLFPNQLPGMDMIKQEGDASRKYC

Chain of endogenous SRC-3 of mouse E14 ES cells (O09000 whole entry): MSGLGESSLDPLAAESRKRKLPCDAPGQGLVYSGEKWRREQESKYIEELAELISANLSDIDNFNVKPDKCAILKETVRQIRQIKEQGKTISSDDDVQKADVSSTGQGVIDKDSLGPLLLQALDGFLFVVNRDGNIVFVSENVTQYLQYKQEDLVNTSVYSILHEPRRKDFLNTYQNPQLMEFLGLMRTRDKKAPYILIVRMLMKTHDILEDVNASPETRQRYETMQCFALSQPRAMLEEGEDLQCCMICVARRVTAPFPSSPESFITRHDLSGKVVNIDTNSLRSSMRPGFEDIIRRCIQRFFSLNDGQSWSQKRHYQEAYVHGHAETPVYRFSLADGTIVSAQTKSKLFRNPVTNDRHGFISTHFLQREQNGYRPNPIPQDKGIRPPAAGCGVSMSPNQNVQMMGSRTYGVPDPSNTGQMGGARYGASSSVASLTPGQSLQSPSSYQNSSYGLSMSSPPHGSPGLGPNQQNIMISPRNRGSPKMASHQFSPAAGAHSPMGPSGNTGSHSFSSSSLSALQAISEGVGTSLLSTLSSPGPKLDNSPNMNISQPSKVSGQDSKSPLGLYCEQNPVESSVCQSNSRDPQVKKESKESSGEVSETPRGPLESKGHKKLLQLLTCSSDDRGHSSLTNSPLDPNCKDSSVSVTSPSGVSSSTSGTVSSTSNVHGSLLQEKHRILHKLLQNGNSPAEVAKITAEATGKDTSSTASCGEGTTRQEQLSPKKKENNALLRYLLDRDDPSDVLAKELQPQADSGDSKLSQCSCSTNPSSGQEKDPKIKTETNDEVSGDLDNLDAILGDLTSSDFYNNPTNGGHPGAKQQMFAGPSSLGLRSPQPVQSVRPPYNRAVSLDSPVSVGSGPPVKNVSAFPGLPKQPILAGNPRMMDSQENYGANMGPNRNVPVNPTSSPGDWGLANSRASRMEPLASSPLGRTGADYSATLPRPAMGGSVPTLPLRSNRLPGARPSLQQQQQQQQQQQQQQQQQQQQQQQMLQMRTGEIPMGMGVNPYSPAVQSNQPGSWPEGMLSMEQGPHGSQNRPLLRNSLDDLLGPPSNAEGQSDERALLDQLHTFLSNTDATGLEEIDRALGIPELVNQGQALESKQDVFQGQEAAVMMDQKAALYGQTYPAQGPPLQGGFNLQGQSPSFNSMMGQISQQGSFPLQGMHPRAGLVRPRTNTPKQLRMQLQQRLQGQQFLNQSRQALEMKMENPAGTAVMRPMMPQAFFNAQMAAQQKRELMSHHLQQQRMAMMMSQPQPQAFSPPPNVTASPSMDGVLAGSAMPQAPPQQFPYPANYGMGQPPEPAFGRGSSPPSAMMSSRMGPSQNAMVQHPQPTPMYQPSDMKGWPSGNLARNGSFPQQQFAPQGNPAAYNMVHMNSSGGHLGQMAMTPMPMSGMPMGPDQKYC

fold change of co-precipitated Sox2, TSA plus NAM against untreated cells [1]: 7.53 fold | fold change of co-precipitated Sox2, TSA plus NAM against untreated cells [2]: 4.08 fold
B1: endogenous Sox2 of mouse E14 ES cells (natural protein)
chain: not shown
